Data as given in patent US20240382610A1 (TALLAC THERAPEUTICS, published 2024).

Legend:
[1] = molecular target: T1, Human nectin-4 ECD-6His (TNT-175) (human, UniProt Q96NY8 32-349); assay: competition ELISA; nectin-4 ECD premixed with TNT207, captured by the coat antibody; % of signal without premix antibody
T1 construct: the entry holds the extracellular domain with the C-terminal 6His tag
T1 sequence: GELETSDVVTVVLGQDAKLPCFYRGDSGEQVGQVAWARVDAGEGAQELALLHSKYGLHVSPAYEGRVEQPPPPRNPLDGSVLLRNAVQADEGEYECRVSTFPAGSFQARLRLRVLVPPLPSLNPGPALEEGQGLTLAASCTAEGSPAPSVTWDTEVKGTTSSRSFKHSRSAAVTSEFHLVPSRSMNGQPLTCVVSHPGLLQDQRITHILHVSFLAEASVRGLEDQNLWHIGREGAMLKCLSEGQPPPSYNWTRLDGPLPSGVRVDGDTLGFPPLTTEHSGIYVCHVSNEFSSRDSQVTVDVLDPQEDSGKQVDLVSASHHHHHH
Experimental: (§1) Competition experiments of nectin-4 antibodies. ELISA plates were coated overnight at 4° C. with goat anti-mouse IgG at […] in PBS. […] As positive control, nectin-4 was diluted at same concentrations without a premix antibody. Two wells per plate were allocated for diluent only as negative/background control. Plates were washed as previously, 50 μL/well of premix was added to each plate and incubated for one hour. Plates were washed then incubated at room temperature for one hour with Rabbit anti 6× HIS HRP diluted 1:4,000 in diluent. Plates were washed once more and incubated at room temperature for 20 minutes with 50 μL/well of ABTS substrate. […] Binding was measured as an Optical Density (O.D.) value normalized to background and calculated as a percentage of positive control at the lowest nectin-4 dilution for greatest resolution.

[2] = molecular target: T1, Human nectin-4 ECD-6His (TNT-175); assay: competition ELISA; nectin-4 ECD premixed with TNT208, captured by the coat antibody; % of signal without premix antibody
Experimental: as §1

[3] = molecular target: T1, Human nectin-4 ECD-6His (TNT-175); assay: competition ELISA; nectin-4 ECD premixed with TNT210, captured by the coat antibody; % of signal without premix antibody
Experimental: as §1

[4] = molecular target: T1, Human nectin-4 ECD-6His (TNT-175); assay: SPR ProteOn, mAb on protein A
Experimental: Initial testing of binding of nectin-4 antibodies to nectin-4. […] Biotinylated protein A (15 μg/mL) was immobilized to the surface of an NLC chip. 30 nM of purified mAb supernatant was diluted in PBS-T and captured over the protein A surface. Serial dilutions of human nectin-4 were injected over the mAb-coated chips, and binding kinetics were determined. Chips were regenerated using 4:1 v/v of IgG elution butter/4M NaCl.

[5] = molecular target: T1, Human nectin-4 ECD-6His (TNT-175); assay: competition ELISA; nectin-4 ECD premixed with TNT206, captured by the coat antibody; % of signal without premix antibody
Experimental: as §1

[6] = molecular target: T1, Human nectin-4 ECD-6His (TNT-175); assay: competition ELISA; nectin-4 ECD premixed with TNT212, captured by the coat antibody; % of signal without premix antibody
Experimental: as §1

[7] = molecular target: T1, Human nectin-4 ECD-6His (TNT-175); assay: competition ELISA; nectin-4 ECD premixed with TNT201, captured by the coat antibody; % of signal without premix antibody
Experimental: as §1

[8] = molecular target: T1, Human nectin-4 ECD-6His (TNT-175); assay: competition ELISA; nectin-4 ECD premixed with TNT204, captured by the coat antibody; % of signal without premix antibody
Experimental: as §1

[9] = molecular target: T1, Human nectin-4 ECD-6His (TNT-175); assay: competition ELISA; nectin-4 ECD premixed with TNT205, captured by the coat antibody; % of signal without premix antibody
Experimental: as §1

human nectin-4 on cells = molecular target: T2, human nectin-4 on cells (human, UniProt Q96NY8 32-510); assay: flow cytometry MFI, MNK74 (nectin-4 positive) over AGS (negative)
T2 construct: whole, on cells; also called PVRL4
T2 sequence (looked up): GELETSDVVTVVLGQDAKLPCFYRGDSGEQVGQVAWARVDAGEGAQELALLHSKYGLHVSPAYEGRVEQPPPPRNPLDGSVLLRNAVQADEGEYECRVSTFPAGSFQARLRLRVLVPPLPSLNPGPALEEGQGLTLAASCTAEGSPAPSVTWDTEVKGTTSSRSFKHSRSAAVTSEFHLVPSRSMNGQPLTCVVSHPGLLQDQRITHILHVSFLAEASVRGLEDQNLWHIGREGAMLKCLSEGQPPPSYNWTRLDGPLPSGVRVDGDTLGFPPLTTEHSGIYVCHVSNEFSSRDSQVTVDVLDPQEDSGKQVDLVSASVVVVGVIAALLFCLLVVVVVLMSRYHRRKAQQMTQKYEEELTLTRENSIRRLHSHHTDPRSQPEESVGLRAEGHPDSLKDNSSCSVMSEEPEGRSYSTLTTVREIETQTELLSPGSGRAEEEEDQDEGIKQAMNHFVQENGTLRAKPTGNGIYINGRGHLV
Experimental: Cell binding of nectin-4 antibodies. Cell binding of the nectin-4 antibodies was also assessed. MNK74 (nectin-4 positive) and AGS (nectin-4 negative) cells were obtained from ATCC and cultured according to their protocols. Cells were detached with TrypLE (Gibco) and washed by centrifugation for five minutes at 400×g with FACS buffer (PBS+2% FBS). Cells were resuspended in FACS buffer, plated in 96-well format (0.25 e6/well) then pelleted by centrifugation for five minutes at 400×g. Cells were stained at 4° C. in Fixable Viability Dye eFluor 506 (eBioscience) diluted 1:4,000 in PBS. […] Cells were centrifuged, washed once in FACS buffer and stained at 4° C. with Goat F(ab′)₂ anti-Mouse IgG APC (Southern Biotech) diluted 1:400 in FACS buffer for 30 minutes or appropriate anti-human IgG. Cells were centrifuged, washed twice and fixed in 0.5% paraformaldehyde. Cells were analyzed on Attune NxT Flow Cytometer (Thermo Fisher), with subsequent data analysis by Flowjo 10.7 (BD). Dead cells were excluded by gating on the eFluor 506-negative population. […] Binding was assessed by median fluorescent intensity.

[10] = molecular target: T1, Human nectin-4 ECD-6His (TNT-175); assay: competition ELISA; nectin-4 ECD premixed with TNT203, captured by the coat antibody; % of signal without premix antibody
Experimental: as §1

[11] = molecular target: T1, Human nectin-4 ECD-6His (TNT-175); assay: competition ELISA; nectin-4 ECD premixed with TNT209, captured by the coat antibody; % of signal without premix antibody
Experimental: as §1

[12] = molecular target: T1, Human nectin-4 ECD-6His (TNT-175); assay: competition ELISA; nectin-4 ECD premixed with TNT211, captured by the coat antibody; % of signal without premix antibody
Experimental: as §1

[13] = molecular target: T1, Human nectin-4 ECD-6His (TNT-175); assay: competition ELISA; nectin-4 ECD premixed with TNT202, captured by the coat antibody; % of signal without premix antibody
Experimental: as §1

Binder | % of Positive [1] | % of Positive [2] | % of Positive [3] | Kd [4] | koff [4] | kon [4] | % of Positive [5] | % of Positive [6] | % of Positive [7] | % of Positive [8] | % of Positive [9] | Fold-change of binding to MNK74 compared to control AGS (human nectin-4 on cells) | % of Positive [10] | % of Positive [11] | % of Positive [12] | % of Positive [13]
TNT-193 (antibody, mouse IgG2a, kappa) heavy: QVQLQESGPGLVKPSGTLSLTCTVSGGSISSGGYYWAWIRQPPGKGLEWIGSIYYTGSTYYNPSLKSRVTIYVDTSKNQFSLKLSSVTAADTAVYYCARDPFPEPPDAFDIWGQGTMVTVSSAKTTAPSVYPLAPVCGDTTGSSVTLGCLVKGYFPEPVTLTWNSGSLSSGVHTFPAVLQSDLYTLSSSVTVTSSTWPSQSITCNVAHPASSTKVDKKIEPRGPTIKPCPPCKCPAPNLLGGPSVFIFPPKIKDVLMISLSPIVTCVVVDVSEDDPDVQISWFVNNVEVHTAQTQTHREDYNSTLRVVSALPIQHQDWMSGKEFKCKVNNKDLPAPIERTISKPKGSVRAPQVYVLPPPEEEMTKKQVTLTCMVTDFMPEDIYVEWTNNGKTELNYKNTEPVLDSDGSYFMYSKLRVEKKNWVERNSYSCSVVHEGLHNHHTTKSFSRTPGRPQGFGPP light: not shown | 1.6% | 2.4% | 2.1% | 3.73 nM | 0.00837 s⁻¹ | 2.24e+06 M⁻¹ s⁻¹ | 3.1% | 3.7% | 2.2% | 1.9% | 8.4% | 5.2 fold | 17% | 5.1% | 6% | 3%
TNT-194 (antibody, mouse IgG2a, kappa) heavy: EVQLVQSGAEVKKPGASVKVSCKASGYTFTSYDINWVRQAPGQGLEWMGGIIPIFGTANYAQKFQGRVTITADESTSTAYMELRSLRSEDTAVYYCASTAVAGFGIDYWGQGTLVTVSSAKTTAPSVYPLAPVCGDTTGSSVTLGCLVKGYFPEPVTLTWNSGSLSSGVHTFPAVLQSDLYTLSSSVTVTSSTWPSQSITCNVAHPASSTKVDKKIEPRGPTIKPCPPCKCPAPNLLGGPSVFIFPPKIKDVLMISLSPIVTCVVVDVSEDDPDVQISWFVNNVEVHTAQTQTHREDYNSTLRVVSALPIQHQDWMSGKEFKCKVNNKDLPAPIERTISKPKGSVRAPQVYVLPPPEEEMTKKQVTLTCMVTDFMPEDIYVEWTNNGKTELNYKNTEPVLDSDGSYFMYSKLRVEKKNWVERNSYSCSVVHEGLHNHHTTKSFSRTPGRPQGFGPP light: DIQMTQSPSSLSASVGDRVTITCRASQGISNYLAWFQQKPGKAPKSLISAASSLQSGVPSRFSGSGSGTDFTLTISSLQPEDFATYYCLQHDSFPITFGGGTKLEIKRADAAPTVSIFPPSSEQLTSGGASVVCFLNNFYPKDINVKWKIDGSERQNGVLNSWTDQDSKDSTYSMSSTLTLTKDEYERHNSYTCEATHKTSTSPIVKSFNRNEC | 18.4% | 26.4% | 11% | 0.585 nM | 0.0023 s⁻¹ | 3.92e+06 M⁻¹ s⁻¹ | 43.1% | 21.2% | 6.7% | 18.7% | 75.3% | 7 fold | 65.2% | 66.5% | 46.1% | 27.9%
TNT-195 (antibody, mouse IgG2a, kappa) heavy: EVQLVQSGAEVKKPGSSVKVSCKASGGTFSSYAISWVRQAPGQGLEWMGGIIPIFGTANYAQKFQGRVTITADKSTSTAYMELSSLRSEDTAVYYCAAGYYYDSSGYYHQPYYFDYWGQGTLVTVSSAKTTAPSVYPLAPVCGDTTGSSVTLGCLVKGYFPEPVTLTWNSGSLSSGVHTFPAVLQSDLYTLSSSVTVTSSTWPSQSITCNVAHPASSTKVDKKIEPRGPTIKPCPPCKCPAPNLLGGPSVFIFPPKIKDVLMISLSPIVTCVVVDVSEDDPDVQISWFVNNVEVHTAQTQTHREDYNSTLRVVSALPIQHQDWMSGKEFKCKVNNKDLPAPIERTISKPKGSVRAPQVYVLPPPEEEMTKKQVTLTCMVTDFMPEDIYVEWTNNGKTELNYKNTEPVLDSDGSYFMYSKLRVEKKNWVERNSYSCSVVHEGLHNHHTTKSFSRTPGRPQGFGPP light: DIQMTQSPSTLSASVGDRVTITCRASQGISNYLAWYQQKPGKAPKLLIYAASSLQSGVPSRFSGSGSGTDFTLTISSLQPEDFATYYCQQSYSTPLTFGGGTKVEIKRADAAPTVSIFPPSSEQLTSGGASVVCFLNNFYPKDINVKWKIDGSERQNGVLNSWTDQDSKDSTYSMSSTLTLTKDEYERHNSYTCEATHKTSTSPIVKSFNRNEC | 18.3% | 23.1% | 16.3% | 1.34 nM | 0.00125 s⁻¹ | 930000 M⁻¹ s⁻¹ | 35.8% | 20.7% | 6.6% | 15.2% | 63.2% | 6.4 fold | 51.5% | 56.2% | 46.9% | 24.7%
